# In article PMC10119399, “Insights to improve the activity of glycosyl phosphorylases from Ruminococcus albus 8 with cello-oligosaccharides” (Frontiers in Chemistry, 2023):
# Experiments:
# RalCDP-CBM37 [1] = tested on: T1, RalCDP-CBM37; assay: glucose release, glucose oxidase-peroxidase, Michaelis-Menten fit; format: biochemical, Hominimerdicola alba; conditions: phosphorolysis direction; Pi as co-substrate; 50 mM sodium acetate pH 6.0, 45°C; read-out: K M (mM) (mg/mL)
# T1 construct: CBM37 of R. albus 8 Cel5G fused by glycine linker (Gly X9) to C-terminus of full-length RalCDP in one polypeptide; His-tag kept; E. coli BL21 (DE3); homodimer
# RalCDP-CBM37 [2] = tested on: T1, RalCDP-CBM37; assay: arsenolysis, glucose release, glucose oxidase-peroxidase, Michaelis-Menten fit; format: biochemical, Hominimerdicola alba; conditions: phosphorolysis direction measured as arsenolysis; arsenate as co-substrate; 50 mM sodium acetate pH 6.0, 45°C; read-out: K M (mM) (mg/mL)
# [3] = target: RalCDP-CBM37, RalCDP fused at its C-terminus to CBM37 of R. albus 8 Cel5G by a glycine linker (Ruminococcus albus 8); assay: SEC; Superdex 200 10/300 in Buffer G (50 mM HEPES-NaOH pH 8.0, 100 mM NaCl, 0.1 mM EDTA); native mass from a calibration curve of standard proteins
# [4] = target: Ral∆N63CDP-CBM37, Ral∆N63CDP fused at its C-terminus to CBM37 of R. albus 8 Cel5G by a glycine linker (Ruminococcus albus 8); assay: as above
# [5] = target: Ruminococcus albus 8 cellobiose phosphorylase (RalCBP) (Ruminococcus albus 8); assay: as above
# [6] = target: Ruminococcus albus 8 cellodextrin phosphorylase (RalCDP) (Ruminococcus albus 8); assay: as above
# [7] = substrate: O=P(O)(O)O[C@H]1O[C@H](CO)[C@@H](O)[C@H](O)[C@H]1O; assay: Pi release, Malachite Green, Michaelis-Menten fit; format: biochemical, Hominimerdicola alba; conditions: synthesis direction (donor), co-substrate glucose, 100 mM sodium acetate pH 6.0, 45°C
# Excerpt: Pi release, Malachite Green, Michaelis-Menten fit on RalCBP
# purified protein = substrate: O=P(O)(O)O; assay: purified protein; conditions: phosphorolysis direction, co-substrate cellobiose, 50 mM sodium acetate pH 6.0, 45°C
molecule,measurement,setting,value
OC[C@H]1O[C@@H](O[C@H]2[C@H](O)[C@@H](O)C(O)O[C@@H]2CO)[C@H](O)[C@@H](O)[C@@H]1O (some centres unmarked) [Cellobiose],Km,RalCDP-CBM37 [1],11 ± 2 mM
OC[C@H]1O[C@@H](O[C@H]2[C@H](O)[C@@H](O)[C@H](O[C@H]3[C@H](O)[C@@H](O)[C@H](O[C@H]4[C@H](O)[C@@H](O)[C@H](O[C@H]5[C@H](O)[C@@H](O)C(O)O[C@@H]5CO)O[C@@H]4CO)O[C@@H]3CO)O[C@@H]2CO)[C@H](O)[C@@H](O)[C@@H]1O (some centres unmarked) [Cellopentaose],Km,RalCDP-CBM37 [2],0.14 ± 0.03 mM
OC[C@H]1O[C@@H](O[C@H]2[C@H](O)[C@@H](O)[C@H](O[C@H]3[C@H](O)[C@@H](O)[C@H](O[C@H]4[C@H](O)[C@@H](O)C(O)O[C@@H]4CO)O[C@@H]3CO)O[C@@H]2CO)[C@H](O)[C@@H](O)[C@@H]1O (some centres unmarked) [Cellotetraose],Km,RalCDP-CBM37 [2],0.24 ± 0.06 mM
OC[C@H]1O[C@@H](O[C@H]2[C@H](O)[C@@H](O)[C@H](O[C@H]3[C@H](O)[C@@H](O)C(O)O[C@@H]3CO)O[C@@H]2CO)[C@H](O)[C@@H](O)[C@@H]1O (some centres unmarked) [Cellotriose],Km,RalCDP-CBM37 [2],2.2 ± 0.3 mM
"RalCDP-CBM37, RalCDP fused at its C-terminus to CBM37 of R. albus 8 Cel5G by a glycine linker (enzyme)",stoichiometry N,[3],2
"Ral∆N63CDP-CBM37, Ral∆N63CDP fused at its C-terminus to CBM37 of R. albus 8 Cel5G by a glycine linker (enzyme)",stoichiometry N,[4],5
Ruminococcus albus 8 cellobiose phosphorylase (RalCBP) (enzyme),stoichiometry N,[5],2
Ruminococcus albus 8 cellodextrin phosphorylase (RalCDP) (enzyme),stoichiometry N,[6],2
"RalCBP (Hominimerdicola alba 8) (protein, full length, His6-tag kept (methods: N-terminus; results: C-terminal), codon-optimized, E. coli BL21 (DE3); homodimer 180 kDa) MKFGFFDDANKEYVITEPRTPYPWINYLGSQAFFSLISNTAGGYSFYKDARLRRITRYRYNNVPIDMGGRYFYINDNGTVWNPGWSPVKTELDAYTCRHGMGYTIIKGEKNGLEAEVTFFVPNNYNGEVQKVVLTNKSGAEKTFKLFSFAEWCLWDAQDDCTNFQRNFSTGRVEVDGSVIYHKTEYRDRRDHYAFYSVNDSIDGYDTDRDSFIGLYNGFNDPQAVMAGKANDSFADGWSPIASHYKEIKLGAGESKTLIFILGYVEMPVDQKFEADGKTINKVKAKAMMEQFDTPEKVDAGLAELKASWDKLLGILNVDTPDDKVDRMVNIWNQYQCMVTFNLSRSASYFESGIGRGMGFRDSNQDILGFVHQIPDRARERIIDIASTQLPDGGCYHQYQPLTKKGNSDIGGDFSDDPLWMILSVSAYIKETGDWGILDEMVPYDNDESKAQPMLDHLKVSFYHIVNNLGPHGLPLAMRADWNDCINLSCYSDTPGESFQTYTNPKFAAEGGYSKVAESVMVATLFTYTGPNYVAILKHLGKDDEAAAAQAEIDKMKKNVMASAWDGDWFLRAYDSEGKKMGSKECEEGQIFIEPQGFAIMSEIGKEQGADKKTLAAIDERLNTKFGLVLNNPAFTKYYIQYGEISTYPGGYKENAGIFTHNNAWIICAAAYAGQGDQAFKYYSEIAPAFTEETSDIHKTEPYVYGQMIGGKDAGSDIGRPGKNFGQGKNSWLTGTAAWNMVAISQYILGVQPDFDGLKIDPSIPAAWDGFNITRKFRGNTYNIAVKNPDHVCKGIKSVTVDGKKIDGIVMPVFEAGSVHEVEVVMG",Km,[7],2000 ± 200 µM
same,kcat,[7],178 ± 2 s⁻¹
same,kcat/Km,[7],89000 M⁻¹ s⁻¹
same,Km,purified protein,580 ± 20 µM
same,kcat,purified protein,284 s⁻¹
same,kcat/Km,purified protein,490000 M⁻¹ s⁻¹
